{"source": "paper PMC5527020", "key": {"[1]": {"system": "HCV NS3", "experiment": "magnetic-bead pull-down with q-PCR", "conditions": "BD buffer: 50 mM NaH2PO4 pH 8.0, 150 mM NaCl, 5 mM KCl, 2 mM MgCl2, 0.05% Tween-20; room temperature, 30 min; aptamer heated to 95 C and cooled at 4 C"}, "[2]": {"system": "Hepatitis B surface antigen (HBs Ag)", "experiment": "magnetic-bead pull-down with q-PCR", "conditions": "BD buffer: 50 mM NaH2PO4 pH 8.0, 150 mM NaCl, 5 mM KCl, 2 mM MgCl2, 0.05% Tween-20; room temperature, 30 min; aptamer heated to 95 C and cooled at 4 C"}}}
{"sequence": "AGCAGCACAGAGGTCCTGCATCACGAAGCCTGGCAGCGTGCTACCGTGAA [MP-1]", "values": [{"measurement": "Kd", "setting": "[1]", "value": 23.3, "unit": "nM"}, {"measurement": "Kd", "setting": "[2]", "value": 28.3, "unit": "nM"}]}
